Data taken from publication PMC9445664, “A transcription factor TaMYB5 modulates leaf rolling in wheat”.

Assays:
TaMYB5 (GST-TaMYB5) [1] = biological target: T1, TaMYB5 (GST-TaMYB5) (Triticum aestivum, UniProt A0A3B6ELG7 1-265); experiment: EMSA; unlabeled N1 competes; LightShift Chemiluminescent EMSA Kit (Thermo); buffer, salt, pH and temperature not stated; details: protein: recombinant; tags: N-terminal GST; label: biotin (labeled probe); blunt
TaMYB5 (GST-TaMYB5) [2] = biological target: T1, TaMYB5 (GST-TaMYB5); experiment: competition; EMSA; unlabeled mutant probe against biotin-labeled N1; LightShift Chemiluminescent EMSA Kit (Thermo); buffer, salt, pH and temperature not stated; details: protein: recombinant; tags: N-terminal GST; blunt

T1 sequence (A0A3B6ELG7 entry or part of it): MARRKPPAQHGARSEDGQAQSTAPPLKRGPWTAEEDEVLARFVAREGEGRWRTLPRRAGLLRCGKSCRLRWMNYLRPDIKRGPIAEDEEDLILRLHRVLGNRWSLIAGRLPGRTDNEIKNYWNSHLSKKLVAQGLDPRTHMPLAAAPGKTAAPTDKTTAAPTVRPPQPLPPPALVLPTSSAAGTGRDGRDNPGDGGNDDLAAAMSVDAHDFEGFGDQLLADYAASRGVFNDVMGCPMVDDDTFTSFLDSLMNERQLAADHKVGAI

Binder | binding result (TaMYB5 (GST-TaMYB5) [1]) | binding result (TaMYB5 (GST-TaMYB5) [2])
3xAC probe (AC box of TaNRL1 promoter) (dsDNA) DNA 1: AGTCCACCTAACGCCACCTAACGCCACCTAACGCTGTT DNA 2: AACAGCGTTAGGTGGCGTTAGGTGGCGTTAGGTGGACT | binds | –
mutant 3xAC probe (dsDNA) DNA 1: AGTCCAAATATTGCCAAATATTGCCAAATATTGCTGTT DNA 2: AACAGCAATATTTGGCAATATTTGGCAATATTTGGACT | – | no binding
